Test results from the nanobody polyreactivity screen of Harvey et al. (2022).

Test: yeast display, Sf9 membrane polyspecificity reagent, FACS + sequencing; frameworks hold sequencing errors
Method in brief: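 After 36–48 hours of galactose induction, yeast (Saccharomyces cerevisiae BJ5465) displaying a synthetic nanobody library were stained at 4 °C for 1 hour with 10% biotinylated, detergent-solubilized Sf9 membrane reagent. Streptavidin microbeads enriched the stained cells before FACS sorting into low and high (top ~1%) gates on anti-HA and streptavidin fluorescence. Each clone's polyreactivity label reflects its gate of origin.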

Sequence	polyreactivity (PSR sort gate)
QVQLVESGGGLVQAGGSLRLSCAASGSIFQYVYAMGWYRQAPGKERELVATITWSGGTTYYADSVKGRFTISRDNAKNTVYLQMHSLKPEDTADYYCAAESIYYPVAQYYYSFEYWGQGTQVTVSS	low polyreactivity
QVQLVESGGGLVQAGGSLSLSCAASGIFSRYAMGWYRQAPGKERELVAAISSGGSTYYAESVKGRFTISRDNAKNTVYLQMNSLKPEDTAVYYCSVKQRDKFAGGRNDYWGQGTQVTVSS	high polyreactivity
QVQLVESGGGLVQAGGSLRLSCAASGRIFTYYAMGWYRQAPGKERELVAAINFNSGSTYYADSVKGRFTISRDTAKNTVYLQMNSLKPEDTAVYYCAAVPRRGLPKSYYYWGQGTQVTVSS	high polyreactivity
QVQLVESGGGLVQAGGSLRLSCAASGRITFSHNTMGWYRQAPGKERELVAAISSGGRTNYADSVKGRFTISRDNAKNTVYLQMNSLKPEDTAVYYCARESHYDFIYDGMDYWGQGTQVTVSS	low polyreactivity
QVQLVESGGGLDQAGGSLRLSCAASGRIFLPNAMGWYRQAPGKEMEFVASISWSGGSTYYADSVKGRFTISRDYAKNTVYLQMNSLKPEDTAVYYCNARFGKRYYYWGQGTQVTVSS	low polyreactivity
QVQLVESGGGLVQAGGSLRLSCAASGIIFSSSAMGWYRQAPGKEREVVAAITSCGNTNYADSVKGRFTISRDNAKNTVYLQMNSLNPEDTAVYYCNAETSFVWLAWHPYGFGDWGQGTQVTVSS	low polyreactivity
QVQLVESGGGLVQAGGSLRLSCAASGRIFNLYGMGWYRQAPGKEREFVATITWSGVTTYADSVKGRFTISRDNAKNTVYLQMNSLKPEDTAVYYCAADYRYRTRWYDYWGQGTQVTVSS	high polyreactivity
QVQLVESGGGLVQAGGSLRLSCAASGITLGTYVMGWYRQAPGKERELVAAISSGGSTYYADSVKGRFTISRDNAKNTVYLQMNSLKPEDTAVYYCAAQYYPYYDSRVSYDYWGQGTQVTVSS	low polyreactivity
QVQLEESGGGLVQAGGSLRLSCAASGLTFGDYTMGWYRQAPWKERELVAAITSRGGRTYYADSVKGRFTISRDNAKNTVYLQMNSLTPEDTAVYYCAADDLRIKRVGFDYWGQGTQVTVSS	high polyreactivity
QVQLVESGGGLVQAGGSLRLSCAASGRIFYFNAMGWYRQAPGKEREFVASINSIGDSTYYADSVKGRFTISRDNAKNTVYIQMNSQKPEDTAVYYCKADHGVINYRLDYWGHGTQVTVSS	low polyreactivity
QVQLVESGGGLVQAGGSLRLSCAASGRTFRFNAMGWYRPAPGKEREFVAAITSGGGTYYADSVKGRFTISRDNAKNTVYLQMNSLKPEDTAVYYCATVGIVHHRLVAMDYWGQGTQVTVSS	low polyreactivity
QVQLVESGGGLVQAGGSLRLSCAASGSIYTYYAMGWYRQAPGKERELVAAINSGGRTNYADSVKGRFTISRDNAKNTVYLQMNSLKPEDTAVYYCAADGSVSYYTYYYWGQGTQVTVSS	low polyreactivity
QVQLVESGGGLVQAGGSLRLSCAASGSIFWAYTMGWYRQAPGKERELVAAISASGGSTYYADSVKGRFTISRDNAKNTVYFQMNSLKPEDTAVYYCAAVYDLGYYGPIWAIVLDDYWGQGTQVTVSS	low polyreactivity
QVQLVESGGGLVQAGGSLRLSCAASGLTFPVYTMGWYRQAPGKEREFVAAITYNGGRTYYADSVKGRFTISRDNAKNTVYLQMNSLKPEDTAVYYCAAEYGTYFVRYYAGASYRYGYWGQGTQVTVSS	low polyreactivity
QVQLVESGGGLVQAGGSLRLTCAASGRILYSYAMGWYRQEPGKERELVAAISGSGGSTYYADSVKGRFTISRDNSKNTVYLQMNMLKPEDTAVYYCAARDLYRYRPQGLGSSQRYYYWGQGTQVTVSS	high polyreactivity
QVQLVESGGGLVQAGGSLRLSCAASGIIFVRNAMGWYRQAPGKERELVAAISRSGGSTYYADSVKGRFTISRDNAKNTVYLQMNSLKPEDTAVYYCAAVMRLSSGYDYWGQGTQVTVSS	high polyreactivity
QVQLVESGGGLVQAGGSLRLSCAASGRTFAGNAMGWYRQAPGKERELVAAISQGGGSTYYADSVKGRFTFSRDNATNSVYLQMNRLNPDDTAVYYCAAEIPRRWASFATLWYDYWGQGTQVTVSS	low polyreactivity
QVQLVESGGGLVQAGGSLRLSCAASVYTFSKNTMGWYRQAPGKEREFVAAINWSGGSTYYADSVKGRFTISRDNAKNTVYLQMNSLKPEDTAVYYFAARRGGRRGYDYWGQGTQVTVSS	high polyreactivity
QVQLVESGGGLDQARGSLRLSCAASGSTFYLYAMGWYRQAPGKERELVAAISSGGRTYYADSVKGRFTISRDNAKNTVYLQMNSLKPEDTAVYYCAKVYRRRYYWGQGTQVTVSS	high polyreactivity
QVQLEESGGGLVQAGGSLRLSCAASGFIFYRYAMGWYRQAPGKERELVAALTTGGDRTYYADSVKGRFTISRDNAKNTVYLQMNSLKPEDPAVYYCATLWSYYYATIYLDGYDYWGQGTQVTVSS	high polyreactivity
QVQLVESGGGLVQAGGSLRLSCAASGRIFERYAMGWYRQAPGKERELVAAISYRGGRTYYADSVKGRFTISRDNAKNTVYLQMNSLKPEDTAVYYCAAVEVRRVADYGFGLLDYWGQGSQVTVSS	high polyreactivity
QVQLVESGGGLVQAGGSLRLSCAASGSIFGRYAMGWYRQAPGKERELVAAISWRGGSTYYADSVKGRFTISRDNAKNTVYLQMNRLKPEDTAVYYCAKSGTFYYPRYDYWGQGTQVTVSS	high polyreactivity

Sequence	polyreactivity (PSR sort gate)
QVQLVESGGGLVQAGGSLRLSCAASGGTFSRNAMGWYRQAPGKERELVAAINTSGVSTSYADSVKGRFTISRDNAKNTVYLQMNSLKPEDTAVYYCAAETSSAEVDYWGQGTQVTVSS	low polyreactivity
QVQLVESGGGLVQAGGSLRLSCADSGRLFYPYAMGWYTQAPGTERELVAAIRRSGVDTYYADSVKGRFTISRDNAKNTVYLQMNSLKPEDTAVYYCAADPYSFFPHYDSWGQGTQVTVSS	low polyreactivity
QVQLVESGGGLVQAGGSLRLSCASSGFTFYTNDMGWDRQAPGKERELVAAITWSGGSTYYADSVKGRFTISRDNAKNTVYFQMNSLKPEDTAVYYCAASIGQVTQRRYGTRYYYWGQGTQVTVSS	high polyreactivity
QVQLVESGGGLVQAGGSLRLSCAASGIIFPYYAMGWYREAPGIERELVAGLDSSGSSTNYADSVKGRFTISRDTAKTTVYLQITSLQPEDTAVYYCAKVTSSGDAVLTQIPYGYDYWGQGTQVTVSS	low polyreactivity
QVQLVESGGGLVQAGGSLRLICAASGLTFFLYPMGWYRPAPGKERELVAAISSRGGSTYYADSVKGRFTISRDKAKNTVYLQMYSLKPEDTAVYYCADATKGDEDYWGQGTQVTVSS	high polyreactivity
QVQLVESGGGLVQAGGSLRLSCAASGSTFVKNAMGWYRQAPGKERELVAAIRSSGGSTYYADSVKGRFTISRDNAKNTVYLQMNSLKPEDTAVYYCNKVLQASRSKYYYWGQGTQVTVSS	high polyreactivity
QVQLVESGGGLVQAGGSLRLSCAASGSILVSYAMARYSQAPGKERELVAAISGNSDSTYYADSVKGRFTISRDNAKNTVYLQMNSLKPEDTAVYYCAKEGGNGYDYWGQGTQVTVSS	low polyreactivity
QVQLVESGGGLVQAGGSLRLSCAASGSTFYHYAMGWYRQAPGKERELVAAISTSGGRTYYADSVKGRFTISRDNAKNTVYLQMNSLKPEDTAVYYCAARSYRYYYGFDYWGQGTQVTVSS	low polyreactivity
QVHLVESGGGLVQAGGSLRLTCAASGSIFTYNAMGWYRQAPGKEREFVAAISRCGGNTKYADSVKGRFTISRDNAKNTVYFQMNSLKPEDTAVYYCAVRTIAYSGFRYNYWGQGTQVTVSS	high polyreactivity
QLQLVESGGGLDQAGGSLRLSCAASGFTFVSYAMGWYRQAPGKERELVAVISYRAGSTYYADSVKGRFTISRDNAKNTVYLQMYSLKPEDTAVYYCATDRYSRRNDYWGQGTQVTVSS	high polyreactivity
QVQVVESGGGLVKAGGSLRLSCAASGIIFVYYAMGWSRQAPGKERELVAAITSDGGRTYYADSVKGRFTISRDNAKNTVYLQMNSLKPEDTAVYYWAARTLYRGIKGYNYWGQGTQVTVSS	high polyreactivity
QVQLVDSGGGLVHAGGSLRLSCAASGSIFGANTMGWYRPAPGKERELVAGITSRARTYYADSVKGRFTISRDNANNNVYLQMNSLKPEDTAVYYCAAKYAWRRYGYWGQGTQVTVSS	high polyreactivity
QVQLVESGGGLVQAGGSLRISCAASGRIFGDNGMGWYSQAPGKERELVTYADSVKGRFTISRDNAKNTVYLQMNSLKPEDTAVYYCYKDPPRFSGLDENYWGQGSQVTVSS	low polyreactivity
QVQLVESGGGLVQAGGSLRLSCAASGSIFGLYAMGWYRQAPGKERELVARITRSGGRTYYADSVKGRFTISRDNAKNTVYLQMNSLKPEDTAVYYCNKLLPSYVLPDDYWGQGTQVTVSS	low polyreactivity
QVQLVESGGGLVQAGGSLRLSCAASGSIFRVNDMGWYRQAPGKERELVATISRSGAITYYADSVKGRFTISRDNAKNTVNLQMNSLKPEDNAVYYCAADFLSRDWGQGTQVTLSS	low polyreactivity
QVQLVESGGGLVQAGGSLRLSCAASGRTFSPYAMGWYRQAPGKERELVAAISWIGGSTYYADSVKGRFTISRDNAKNTVYLQMNSLKPEDTAVYYCAADKSVFSDSHAVSMIYRYDYWGQGTQVTVSS	low polyreactivity
QVQLVESGGGLVQAGGSLRLSCAASGRTFGVNAMGWYRQAPGKERELVARNRVSGGRTYYADSVKGRFTISRDNAKNTVYLQMNSLKPEDTAVYYFNAGYTYNRVIWPYYYWGQGTQVTVSS	high polyreactivity
QVQLVESGGGLVQAGGSLRLSCAASGFTFSSYAMGWYRQAPGKERELVAAITISGGRTYYADSVKGRFTISRDNAKNTVYLQMNSLKPEDTAVYYCAALYVEGQNHYGYWGQGTQVTVSS	high polyreactivity
QVQLVESGGGLDQAGGSLRLSCAASGIIITIYAMVWYRQAPGKERELVAAISFSVGSTYYADSVKGRFTISRDNAKNTFFLQMNSLKPEDTAVYYCAAESYTYPFEYWGQGTQVTVSS	high polyreactivity
QVQLVESGGGLDQAGGSLRLSCAASGRIFYYYPMGWYRQAPGKERELVAGIDSGDSTNYADSVKGRFTITRDNAKNTVYLQINSLKPEDTAVYYCAALHYGGYFSYYPYYYWGQGTQATVSS	low polyreactivity
QVQLVESGGGLVQAGGSLRLSCAASGRTFTWYAMGWYRQAPGKERELVAAISFSGGSTYYADSVKGRFTISRDNAKNTVYLQMNSLKPEDTAVYYCARPSGDAWEGPRMDYWGQGTQVTVSS	low polyreactivity
